# Measured values from patent US20210130452A1 (Merck KGaA, published 2021).
# Substitutions are numbered along the chain they refer to.
# T1: human IL-17F (human, UniProt Q96PD4 31-163, biotinylated with Sulfo-NHS-LC-Biotin in the AlphaScreen assays only)
# T1 construct: also called hIL-17F; recombinant human IL-17F
# T1 sequence: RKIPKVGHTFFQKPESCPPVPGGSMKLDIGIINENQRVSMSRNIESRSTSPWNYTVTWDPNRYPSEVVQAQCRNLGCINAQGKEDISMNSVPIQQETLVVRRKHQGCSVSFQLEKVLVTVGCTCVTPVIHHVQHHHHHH
# T2: human IL-17D (human, UniProt Q8TAD2 18-202, limits assumed)
# T2 construct: expressed in E. coli; also called hIL-17D
# T2 sequence (looked up): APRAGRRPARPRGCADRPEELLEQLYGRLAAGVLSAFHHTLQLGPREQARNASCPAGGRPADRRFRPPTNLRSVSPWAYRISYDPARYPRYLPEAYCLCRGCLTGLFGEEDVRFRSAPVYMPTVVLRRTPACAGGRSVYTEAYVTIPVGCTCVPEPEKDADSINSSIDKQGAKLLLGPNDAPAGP
# T3: human IL-17C (human, UniProt Q9P0M4 19-197)
# T3 construct: expressed in E. coli; also called hIL-17C
# T3 sequence (looked up): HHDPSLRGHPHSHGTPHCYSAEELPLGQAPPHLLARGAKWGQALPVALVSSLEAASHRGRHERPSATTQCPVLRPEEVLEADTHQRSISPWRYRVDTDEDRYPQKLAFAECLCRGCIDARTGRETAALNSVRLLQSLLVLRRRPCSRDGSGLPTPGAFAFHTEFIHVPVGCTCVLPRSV
# T4: human IL-17B (human, UniProt Q9UHF5 21-180)
# T4 construct: expressed in E. coli; also called hIL-17B
# T4 sequence (looked up): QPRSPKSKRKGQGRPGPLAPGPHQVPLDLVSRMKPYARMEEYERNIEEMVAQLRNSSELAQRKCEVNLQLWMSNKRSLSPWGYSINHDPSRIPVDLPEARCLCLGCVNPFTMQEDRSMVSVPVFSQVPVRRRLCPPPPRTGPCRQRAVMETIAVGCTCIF
# T5: human IL-17E (human, UniProt Q9H293 33-177)
# T5 construct: expressed in E. coli; also called hIL-17E
# T5 sequence (looked up): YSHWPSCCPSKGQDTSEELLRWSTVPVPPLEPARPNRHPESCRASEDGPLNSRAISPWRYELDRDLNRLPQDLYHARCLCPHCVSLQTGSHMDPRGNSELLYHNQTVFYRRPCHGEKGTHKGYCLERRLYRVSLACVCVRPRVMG
# T6: mouse IL-17F (mouse, UniProt Q7TNI7 29-161)
# T6 sequence (looked up): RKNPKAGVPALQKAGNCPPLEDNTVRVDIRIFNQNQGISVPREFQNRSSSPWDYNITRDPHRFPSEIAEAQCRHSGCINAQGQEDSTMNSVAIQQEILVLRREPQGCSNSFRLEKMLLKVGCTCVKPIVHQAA
# T7: rat IL-17F (rat, UniProt Q5BJ95 29-161)
# T7 sequence (looked up): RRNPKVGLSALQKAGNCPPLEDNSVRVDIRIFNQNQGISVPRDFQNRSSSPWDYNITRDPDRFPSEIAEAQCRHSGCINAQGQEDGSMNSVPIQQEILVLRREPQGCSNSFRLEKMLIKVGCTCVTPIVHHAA
# B1: 04F09 (VHH)
# VHH: EVQLVESGGGLVQPGGSLRLSCAASGRTFSTHAMGWFRQAPGKERDFVAAIRWSDGSSFYADSVKGRFTISRDNAKNAVYLQSNSLKSEDTAVYVCYADVEGPTALHKYWGRGTQVTVSS
# notes: Class 2 Nanobody (anti-IL-17A and IL-17A/F); not shown: c-myc, His6 tag
# B2: 04B10 (VHH)
# VHH: EVQLVESGGGLVQAGGSQSLSCVASGTIVNINVMGWYRQAPGKQRELVALITSGGGTTYGDSVKGRFTISIDNAKNTVILQMNSLEAEDTAVYYCAAEIGYYSGGTYFSSEAHWGQGTQVTVSS
# notes: as for B1
# B3: 02A10 (VHH)
# VHH: EVQLVESGGGLVQPGGSLRLSCAASGFALGYYAIGWFRQAPGKEREGVSCDSSSDGRTYYGDSVKGRFTISTDSAKNTVYLQMNSLKPEDTAVYYCATCTDFEYDYWGQGTQVTVSS
# notes: as for B1
# B4: 07B09 (VHH)
# VHH: EVQLVESGGGLVQAGGSLRLSCGASGGTFSSYATGWFRQAPGKEREFVAVLRWSDGHTAYADSVKGRFTISRDGAKNTMYLQMSSLKPEDTAIYYCTTATRPGEWDYWGQGTQVTVSS
# notes: Class 3
# B5: 08H01 (VHH)
# VHH: B4 VHH with G56S, K65E, M79V, A99G, D106H
# notes: Class 3
# B6: 24G10 (VHH)
# VHH: B4 VHH with S25A, L51F, G56S, M79L
# notes: Class 3
# B7: 16A04 (VHH)
# VHH: EVQLVESGGGLVQAGGSLRLSCAASGRTFSSYVVGWFRQAPGKEREFIGAISGSGDSIYYAVSEKDRFTISRDNGKNTLYLQMSSLKAEDTAVYYCTADQEFGYLRFGRSEYWGQGTQVTVSS
# notes: Class 3; also called IL17MS16A04
# B8: 06E11 (VHH)
# VHH: EVQLVESGGGLVQAGGSLRLSCPVSGRAFSRGRLGWFRQAPGKEREFVAVAHWSGAITSYADSVKGRFTFSRDNAKNTMNLQMNSLKPEDTAVYYCAADSETSGNWVYWGQGTQVTVSS
# notes: Class 3
# B9: 07B11 (VHH)
# VHH: EVQLVESGGGLVQAGGSLRLSCVASGRAFSSYVMGWFRQAPGMEREFVALIRWSDGITGYVDSVKGRFTISRDNAKNTVYLQMNSLKPEDTAVYYCAAAVRPGDYDYWGQGTQVTVSS
# notes: Class 3
# B10: 24B08 (VHH)
# VHH: EVQLVESGGGLVQAGGSLRLSCAVSGGTFSTYKMGWFRQAPGKEREIVARISTNGPTAYAEFVKGRFTVSRENTKNTVYLQMNSLNIEDTAVYYCAAGYDSLFAGYDYWGQGTQVTVSS
# notes: Class 3
# Biological target: T8, human IL-17A/F heterodimer (human, UniProt Q16552 24-155; Q96PD4 31-163, limits assumed, biotinylated with Sulfo-NHS-LC-Biotin in the AlphaScreen assays only)
# T8 construct: also called hIL-17A/F
# T8 sequence (Q16552 24-155 limits assumed, chain 1 of 2, one chain of several): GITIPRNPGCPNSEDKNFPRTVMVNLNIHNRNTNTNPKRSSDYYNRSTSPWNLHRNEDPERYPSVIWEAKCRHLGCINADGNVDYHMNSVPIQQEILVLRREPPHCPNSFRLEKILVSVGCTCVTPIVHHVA
# Test: SPR Biacore, hIL-17A/F on chip; purified protein
row,koff [s⁻¹],Binder
1,0.0081,B1
2,0.0005,B2
3,0.00028,B3

# Biological target: T8, human IL-17A/F heterodimer
# Test: AlphaScreen competition, hIL-17A/F - IL-17RC-Fc
# Procedure: (§1) To this mixture, the IL-17RA or IL-17RC Fc-fusions, Acceptor beads and the streptavidin Donor beads were added and further incubated for 1 hour at RT.
row,IC50 [nM],Binder
1,3.15,B1
2,0.052,B2
3,0.248,B3

# Biological target: T1, human IL-17F
# Test: SPR Biacore, hIL-17F on chip; periplasmic extract (*); NB = no binding
row,binding result,Binder
1,no binding,B1
2,no binding,B2
3,no binding,B3

# Biological target: T9, human IL-17A (human, UniProt Q16552 24-155, biotinylated with Sulfo-NHS-LC-Biotin in the AlphaScreen assays only)
# T9 sequence (Q16552 other isoform, or with tags, fused parts or gaps): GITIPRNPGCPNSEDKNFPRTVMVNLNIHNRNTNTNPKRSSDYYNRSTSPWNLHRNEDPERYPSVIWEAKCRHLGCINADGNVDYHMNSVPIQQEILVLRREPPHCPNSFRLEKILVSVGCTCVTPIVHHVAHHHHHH
# Test: cell-based or functional assay
"IL-17A-induced IL-6 production in HT-1080 cells, Emax [%]","IL-17A-induced IL-6 production in HT-1080 cells, IC50 [nM]",Binder
111,9.7,B1
99.7,5.1,B2
104,4.3,B3

# Biological target: T9, human IL-17A
# Test: AlphaScreen competition, hIL-17A - IL-17RA-Fc;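 further: receptor Fc-fusion plus Acceptor and streptavidin Donor beads incubated with the mixture for 1 h at room temperature before reading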
# Procedure: as §1
row,IC50 [nM],Binder
1,0.099,B1
2,0.068,B2
3,0.115,B3

# Biological target: T9, human IL-17A
# Test: AlphaScreen competition, hIL-17A - IL-17RC-Fc;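 further: Read-out after 1 h at room temperature with the receptor Fc-fusion, Acceptor beads and streptavidin-coated Donor beads present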
# Procedure: as §1
row,IC50 [nM],Binder
1,0.468,B1
2,0.366,B2
3,0.381,B3

# Biological target: T9, human IL-17A
# Test: SPR Biacore, hIL-17A on chip; purified protein
row,koff [s⁻¹],Binder
1,0.00063,B1
2,0.0004,B2
3,0.00022,B3

# Biological target: T8, human IL-17A/F heterodimer
# Test: cell-based or functional assay
"IL-17A/F-induced IL-6 production in HT-1080 cells, Emax [%]","IL-17A/F-induced IL-6 production in HT-1080 cells, IC50 [nM]",Binder
68.5,45.9,B1
97,59.2,B2
98.5,29.2,B3

# Biological target: T2, human IL-17D
# Test: SPR, cytokine on chip
# Source text: (§2) Human IL-17B, IL-17C, IL-17D or IL-17E were all expressed in E. coli, and covalently bound to a CM sensor chip surface via amine coupling using EDC/NHS for activation and HCl for deactivation.
# (§3) Next, binding buffer was sent over the chip at the same flow rate to allow spontaneous dissociation of bound Nanobody or antibody.
row,binding result,Binder
1,no binding,B4
2,no binding,B5
3,no binding,B6
4,no binding,B7
5,no binding,B8
6,no binding,B9

# Biological target: T3, human IL-17C
# Test: SPR, cytokine on chip
# Source text: as §2, §3
row,binding result,Binder
1,no binding,B4
2,no binding,B5
3,no binding,B6
4,no binding,B7
5,no binding,B8
6,no binding,B9

# Biological target: T4, human IL-17B
# Test: SPR, cytokine on chip
# Source text: as §2, §3
row,binding result,Binder
1,no binding,B4
2,no binding,B5
3,no binding,B6
4,no binding,B7
5,no binding,B8
6,no binding,B9

# Biological target: T5, human IL-17E
# Test: SPR, cytokine on chip
# Source text: as §2, §3
row,binding result,Binder
1,no binding,B4
2,no binding,B5
3,no binding,B6
4,no binding,B7
5,no binding,B8
6,no binding,B9

# Biological target: T8, human IL-17A/F heterodimer
# Test: AlphaScreen competition, hIL-17A/F - IL-17RA-Fc
# Procedure: as §1
row,IC50 [nM],Binder
1,3.98,B1
2,0.095,B2
3,0.199,B3

# Biological target: T6, mouse IL-17F
# Test: binding ELISA
# Procedure: (§4) Binding of a selected panel of anti-IL-17 Nanobodies to IL-17 of other species was assessed using a binding ELISA. […] HRP (horseradish peroxidase) conjugated anti-myc (Serotec, MCA 2200P) was used for detection using esTMB as substrate.
row,binding result,Binder
1,no binding (tested: 250 nM),B4
2,no binding (tested: 250 nM),B5
3,no binding (tested: 250 nM),B6
4,no binding (tested: 250 nM),B7
5,no binding (tested: 250 nM),B10
6,no binding (tested: 250 nM),B8
7,no binding (tested: 250 nM),B9

# Biological target: T7, rat IL-17F
# Test: binding ELISA
# Procedure: as §4
row,binding result,Binder
1,no binding (tested: 250 nM),B4
2,no binding (tested: 250 nM),B5
3,no binding (tested: 250 nM),B6
4,no binding (tested: 250 nM),B7
5,no binding (tested: 250 nM),B10
6,no binding (tested: 250 nM),B8
7,no binding (tested: 250 nM),B9
